The target in assay [1] is acetyl-lysine peptide of Example 6 (printed as RLK{acetyl}FIAYPDDD, SEQ ID NO: 826), state with N-terminal AK{acetyl}. Put plainly: single-molecule on-chip sequencing with PS691, PS610, PS961 and PS1165.
Assay [2] concerns the target lysine peptide of Example 6 (printed as …, SEQ ID NO: 825), state with N-terminal AK. The assay is described as above.

Chain of PS1165 (Q13490 other isoform, or with tags, fused parts or gaps): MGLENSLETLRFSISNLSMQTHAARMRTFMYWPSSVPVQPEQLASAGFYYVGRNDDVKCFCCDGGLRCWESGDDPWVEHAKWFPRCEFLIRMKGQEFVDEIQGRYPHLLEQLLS

As to PS1165 (from UniProt Q13490 250-361), the RS mean PD in assay [1] turned out to be 2.2 s; in assay [2], 1.3 s.

(Values after patent publication US20230213527A1, “COMPOSITIONS AND METHODS FOR POLYPEPTIDE ANALYSIS” (Quantum-Si Incorporated, priority 2021, published 2023).)
